The values that follow come from patent US20240270866A1 (Alector, published 2024).

In general, Kd refers to the concentration at which binding is half-saturated. Higher therefore signals a looser complex.

Test [1] concerns the target T1, mouse SIRPA overexpressed on CHO cells (mouse, UniProt P97797 32-513).
T1 construct: also called CHO-muSIRPA
T1 sequence: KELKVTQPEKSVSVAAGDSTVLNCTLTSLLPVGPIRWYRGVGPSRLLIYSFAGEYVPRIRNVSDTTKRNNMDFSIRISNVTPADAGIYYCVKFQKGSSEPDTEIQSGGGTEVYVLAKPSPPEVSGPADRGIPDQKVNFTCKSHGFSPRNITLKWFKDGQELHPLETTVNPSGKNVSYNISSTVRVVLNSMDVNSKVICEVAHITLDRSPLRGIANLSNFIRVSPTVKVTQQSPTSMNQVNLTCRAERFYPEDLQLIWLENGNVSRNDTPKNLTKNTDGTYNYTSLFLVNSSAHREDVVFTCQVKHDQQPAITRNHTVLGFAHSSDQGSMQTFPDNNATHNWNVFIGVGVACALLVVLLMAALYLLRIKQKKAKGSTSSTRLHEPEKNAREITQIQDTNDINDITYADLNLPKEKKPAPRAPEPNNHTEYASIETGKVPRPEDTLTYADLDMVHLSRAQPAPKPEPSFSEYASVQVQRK
Nature of the test: flow, CHO-muSIRPA.

Test [2] has as its target Human SIRPb D1 Fc (human, UniProt O00241 30-148, limits assumed). Nature of the test: ForteBio IgG avid. (In general: In BLI a coated tip is dipped into the sample, and binding shifts an interference pattern.)
Protocol: (§1) Briefly, ForteBio affinity measurements were performed by loading IgGs on-line onto AHQ sensors. Sensors were equilibrated off-line in assay buffer for 30 min and then monitored on-line for 60 seconds for baseline establishment. For avid binding measurement, sensors with loaded IgGs were exposed to 100 nM antigen (human SIRPA or SIRPβ1 Fc fusion) for 3 min, afterwards they were transferred to assay buffer for 3 min for off-rate measurement. Additional avid binding was determined by loading biotinylated SIRPA monomer on SA sensors and exposure to 100 nM IgG in solution. Monovalent binding measurements were obtained by loading human SIRPA or SIRPβ1 Fc fusion antigens to AHQ sensor and followed by exposure to 100 nM anti-SIRPA antibody Fab. Additional monovalent measurements were made by loading biotinylated human SIRPA or SIRPβ1 monomer to SA sensor followed by exposure to 100 nM Fab in solution. Kinetics data were fit using a 1:1 binding model in the data analysis software provided by ForteBio.
Test [3] has as its target T2, Mouse SIRPA D1 Fc (mouse, UniProt P97797 32-150, limits assumed).
T2 sequence: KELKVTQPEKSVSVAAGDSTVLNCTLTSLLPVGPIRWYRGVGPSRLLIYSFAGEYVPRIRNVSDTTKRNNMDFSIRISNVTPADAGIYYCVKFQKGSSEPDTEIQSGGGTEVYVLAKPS
Kind of test: ForteBio IgG avid.
Protocol: as §1

The target in test [4] is T1, mouse SIRPA overexpressed on CHO cells. Kind of test: flow, CHO-muSIRPA. This is another data set of the same source.
The target of test [5] is T3, human SIRPA overexpressed on CHO cells (human, UniProt P78324 31-504).
T3 construct: also called CHO-huSIRPA
Nature of the test: flow, CHO-huSIRPA.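 Note: Anti-SIRPA antibodies applied at 1 µg/mL for 1 h on ice, binding read by flow cytometry using a PE-labelled secondary antibody.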
Protocol: Initial characterization of anti-SIRPA antibodies of the present disclosure involved determining their ability to bind cell lines overexpressing human or mouse SIRPA. Cells were harvested, plated at 10⁶/ml in a 96 well plate, washed, and incubated in 100 ul PBS containing 1 ug/ml Mab for 1 hour in ice. Cells were then washed twice and incubated in 100 ul PBS containing 5 ug/ml PE-conjugated secondary antibody for 30 minutes in ice. Cells were washed twice in cold PBS and acquired on a BD FACS Canto. Data analysis and calculation of mean fluorescence intensity (MFI) values or % positive cells was performed with FlowJo® (TreeStar) software version 10.0.7.

Test [6] addresses T4, human SIRPβ1 Fc fusion antigen (human, UniProt O00241 30-371).
T4 construct: not shown: human IgG1 Fc
Nature of the test: ForteBio IgG avid.

For test [7], the target named is T5, human SIRPA Fc fusion antigen (human, UniProt P78324 31-373).
T5 construct: heterologous signal peptide; not shown: human IgG1 Fc
Kind of test: ForteBio IgG avid.

Human SIRPb D1 Fc, sequence (O00241 30-148 limits assumed): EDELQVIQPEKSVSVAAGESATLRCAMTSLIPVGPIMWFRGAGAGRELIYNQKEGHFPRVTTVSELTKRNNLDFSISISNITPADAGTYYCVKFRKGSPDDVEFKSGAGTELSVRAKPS
T4 sequence (O00241 30-371 limits assumed): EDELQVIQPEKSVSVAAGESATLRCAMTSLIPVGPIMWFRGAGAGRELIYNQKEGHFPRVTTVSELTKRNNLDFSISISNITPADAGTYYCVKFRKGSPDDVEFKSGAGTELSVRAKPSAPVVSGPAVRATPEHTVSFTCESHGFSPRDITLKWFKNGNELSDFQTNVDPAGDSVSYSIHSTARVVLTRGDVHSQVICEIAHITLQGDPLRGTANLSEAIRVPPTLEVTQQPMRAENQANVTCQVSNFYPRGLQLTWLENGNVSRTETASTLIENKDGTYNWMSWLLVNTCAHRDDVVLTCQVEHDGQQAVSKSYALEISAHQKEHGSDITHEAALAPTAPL

B1: SA-57 (antibody, V domains shown)
VH: QLQLQESGPGLVKPSETLSLTCTVSGGSISSSSYAWGWIRQPPGKGLEWIGSIYYSGSTYYNPSLKSRVTISVDTSKNQFSLKLSSVTAADTAVYYCARKGMDDAGMDVWGQGTTVTVSS
VL: EIVLTQSPATLSLSPGERATLSCRASQSVSSYLAWYQQKPGQAPRLLIYDASNRATGIPARFSGSGSGTDFTLTISSLEPEDFAVYYCQQDSAWPFTFGGGTKVEIK
notes: IgG
Turning to B1, the results for the binding result in test [1], in test [2] and in test [3] were “no binding (tested: 1 ug/ml)”, “no binding (tested: 100 nM)” and “no binding (tested: 100 nM)”, respectively. Besides, the “relative MFI” value in test [4] amounted to 0.464 fold over background; in test [5], 1.89 fold over background.

B2: SA-6 (antibody, V domains shown)
VH: EVQLVESGGGLVQPGRSLRLSCAASGFTFDDYAMHWVRQAPGKGLEWVSGITWNSGSIGYADSVKGRFTISRDNAKNSLYLQMNSLRAEDTALYYCAKEGRYGSGITTTWGQGTLVTVSS
VL: EIVMTQSPATLSLSPGERATLSCRASQSVSSYLAWYQQKPGQAPRLLIYDSSNRATGIPARFSGSGSGTDFTLTISSLEPEDFAVYYCQQDANYPYTFGGGTKVEIK
notes: IgG
Consider B2, for which the binding result is recorded as “no binding (tested: 1 ug/ml)” in test [1], “no binding (tested: 100 nM)” in test [2] and “no binding (tested: 100 nM)” in test [3]. Moreover, the figures for the “relative MFI” value in test [4] and in test [5] were 0.545 fold over background and 3.13 fold over background, respectively.

B3: SA-13 (antibody, V domains shown)
VH: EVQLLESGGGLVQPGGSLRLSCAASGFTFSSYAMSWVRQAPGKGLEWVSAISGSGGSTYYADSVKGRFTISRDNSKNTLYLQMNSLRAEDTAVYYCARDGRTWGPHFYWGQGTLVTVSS
VL: DIQMTQSPSSLSASVGDRVTITCRASQSISSYLNWYQQKPGKAPKLLIYAASSLQSGVPSRFSGSGSGTDFTLTISSLQPEDFATYYCQQGYIYPPTFGGGTKVEIK
notes: IgG; also called SA-13 (parental)
Regarding B3, the binding result is recorded as “no binding (tested: 1 ug/ml)” in test [1] and “no binding (tested: 100 nM)” in test [3]. Besides, the Kd is 19.6 nM in test [2] and 12.3 nM in test [6]. Moreover, the “relative MFI” value in test [4] came out at 0.571 fold over background; in test [5], 59.9 fold over background.

B4: SA-13-69 (antibody, V domains shown)
VH: EVQLLESGGGLVQPGGSLRLSCAASGFTFTEYAMSWVRQAPGKGLEWVSAISGSGGSTYYADSVKARFTISRDNSKNTLYLQMNSLRAEDTAVYYCARDGTQWGPHFYWGQGTLVTVSS
VL: DIQMTQSPSSLSASVGDRVTITCRASQSISSYLNWYQQKPGKAPKLLIYAASSLQSGVPSRFSGSGSGTDFTLTISSLQPEDFATYYCQQGYIYPPTFGGGTKVEIK
notes: IgG
B4 returned a Kd in test [6] of 3.99 nM.

B5: SA-7 (antibody, V domains shown)
VH: QVQLVESGGGVVQPGRSLRLSCAASGFTFSSYGMHWVRQAPGKGLEWVALIWYDGSNKYYADSVKGRFTISRDNSKNTLYLQMNSLRAEDTAVYYCAKEGSSYADGWPYGMDVWGQGTTVTVSS
VL: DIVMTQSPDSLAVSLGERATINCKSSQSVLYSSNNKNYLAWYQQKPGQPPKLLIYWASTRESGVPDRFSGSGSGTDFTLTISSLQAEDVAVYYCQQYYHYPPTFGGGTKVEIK
notes: IgG
For B5, the binding result in test [1] was “no binding (tested: 1 ug/ml)”; in test [2] it was “no binding (tested: 100 nM)”; in test [3], “no binding (tested: 100 nM)”. For the same molecule, the “relative MFI” value in test [4] worked out at 0.515 fold over background; in test [5] it was 0.708 fold over background.

B6: SA-19-72 (antibody, V domains shown)
VH: QVQLVESGGGVVQPGRSLGLSCAASGFTFSSYAMHWVRQAPGKGLEWVAGILYDGSNKYYADSVKGRFTISRDNSKNTLYLQMNSLRAEDTAVYYCARSNEKYTLGFAFDIWGQGTMVTVSS
VL: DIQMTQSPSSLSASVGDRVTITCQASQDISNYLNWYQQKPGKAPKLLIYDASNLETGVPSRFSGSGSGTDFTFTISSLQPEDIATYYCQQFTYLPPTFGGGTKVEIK
notes: IgG
As to B6, the figures for the Kd in test [6] and in test [7] were 4.75 nM and 1.1 nM, respectively.

B7: SA-19-75 (antibody, V domains shown)
VH: QVQLVESGGGVVQPGRSLRLSCAASGFTFSSYGMHWVRQAPGKGLEWVAVIAYDGSNKLYADSVKGRFTISRDNSKNTLYLQMNSLRAEDTAVYYCALMRTKYTLGFAFDIWGQGTMVTVSS
VL: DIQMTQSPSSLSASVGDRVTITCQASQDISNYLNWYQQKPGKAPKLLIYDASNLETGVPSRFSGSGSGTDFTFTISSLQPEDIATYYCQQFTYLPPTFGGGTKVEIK
notes: IgG
On to B7, for which the results for the Kd in test [6] and in test [7] were 3.13 nM and 0.537 nM, respectively.

B8: SA-19-77 (antibody, V domains shown)
VH: QVQLVESGGGVVQPGRSLRLSCAASGFTFSSYGMAWVRQAPGKGLEWVAQILYDGSNEYYADSVKGRFTISRDNSKNTLYLQMNSLRAEDTAVYYCARDLTKYTLGFAFDIWGQGTMVTVSS
VL: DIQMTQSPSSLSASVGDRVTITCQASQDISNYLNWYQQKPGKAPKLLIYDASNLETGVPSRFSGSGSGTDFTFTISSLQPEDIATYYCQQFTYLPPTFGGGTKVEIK
notes: IgG
B8: the figures for the Kd in test [6] and in test [7] were 3.94 nM and 0.441 nM, respectively.

B9: SA-19-73 (antibody, V domains shown)
VH: QVQLVESGGGLVQPGGSLRLSCAASGFTFSSYAMHWVRQAPGKGLEWVAGILYDGSNKYYADSVKGRFTISRDNSKNTLYLQMNSLRAEDTAVYYCANSDTKYTLGFAFDIWGQGTMVTVSS
VL: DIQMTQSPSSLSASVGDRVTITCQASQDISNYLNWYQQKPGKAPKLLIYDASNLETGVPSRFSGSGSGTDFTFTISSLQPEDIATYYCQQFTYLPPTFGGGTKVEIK
notes: IgG
On to B9, for which the results for the Kd in test [6] and in test [7] were 2.95 nM and 0.71 nM, respectively.

B10: SA-19-76 (antibody, V domains shown)
VH: QVQLVESGGGVVQPGRSLRLSCAASGFTFSSYGMHWVRQAPGKGLEWVAVIAYDGSNKLYADSVKGRFTISRDNAKNSLYLQMNSPRAEDTAVYYCATMRTKYTLGFAFDIWGQGTMVTVSS
VL: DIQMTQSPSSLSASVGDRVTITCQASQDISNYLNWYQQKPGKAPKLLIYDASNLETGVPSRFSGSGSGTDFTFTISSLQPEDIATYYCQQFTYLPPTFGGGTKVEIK
notes: IgG
For the molecule B10, the figures for the Kd in test [6] and in test [7] were 2.05 nM and 0.504 nM, respectively.

B11: SA-19-80 (antibody, V domains shown)
VH: EVQLLESGGGVVQPGRSLRLSCAASGFTFSSYGMHWVRQAPGKGLEWVAGILYDGSNKYYADSVKGRFTISRDNSKNTLYLQMDGLRAEDTAVYYCARHSVKYTLGFAFDIWGQGTMVTVSS
VL: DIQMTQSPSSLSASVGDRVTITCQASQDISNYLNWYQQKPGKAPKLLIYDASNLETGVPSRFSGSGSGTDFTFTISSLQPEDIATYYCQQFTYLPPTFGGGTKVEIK
notes: IgG
In the case of B11, the Kd in test [6] amounted to 4.25 nM; in test [7], 1.41 nM.

B12: SA-19-78 (antibody, V domains shown)
VH: QVQLVESGGGVVQPGRSLRLSCAASGFTFSSYGMHWVRQAPGKGLEWVAVIAYDGSNKLYADSVKGRFTISRDNSKNTLYLQMDSLRAEDTAVYYCATSDTKYTLGFAFDIWGQGTMVTVSS
VL: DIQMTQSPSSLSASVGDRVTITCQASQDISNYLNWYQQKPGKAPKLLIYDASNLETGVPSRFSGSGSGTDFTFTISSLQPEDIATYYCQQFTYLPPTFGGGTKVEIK
notes: IgG
On to B12, for which the Kd in test [6] came out at 2.08 nM; in test [7], 1.06 nM.

B13: SA-19-82 (antibody, V domains shown)
VH: QVQLVESGGGVVQPGRSLRLSCAASGFTFSSYAMHWVRQAPGKGLEWVAGILYDGSNKYYADSVKGRFTISRDNSKNTLYLQMNSLRAEDTAVYYCARHVLKYTLGFAFDIWGQGTMVTVSS
VL: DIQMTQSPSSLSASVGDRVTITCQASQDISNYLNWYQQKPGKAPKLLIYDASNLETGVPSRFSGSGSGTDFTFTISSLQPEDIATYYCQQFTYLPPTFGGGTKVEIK
notes: IgG
In the case of B13, the figures for the Kd in test [6] and in test [7] were 3.45 nM and 0.742 nM, respectively.

B14: SA-19-79 (antibody, V domains shown)
VH: QVQLVESGGGVVQPGRSLRLSCAASGFTFSSYGMHWVRQAPGKGLEWVAVIAYDGSNKIYADSVKGRFTISRDNSKNTLYLQMNSLRAEDTAVYYCATTDTKYTLGFAFDIWGQGTMVTVSS
VL: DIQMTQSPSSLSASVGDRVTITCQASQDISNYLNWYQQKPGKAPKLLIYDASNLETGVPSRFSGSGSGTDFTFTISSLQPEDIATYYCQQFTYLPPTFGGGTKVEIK
notes: IgG
B14: the figures for the Kd in test [6] and in test [7] were 1.36 nM and 0.31 nM, respectively.

B15: SA-19-81 (antibody, V domains shown)
VH: QVQLVESGGGVVQPGRSLRLSCAASGFTSSSYGMHWVRQAPGKGLEWVAVIAYDGSNKLYADSVKGRFTISRDNSKNTLYLQMNSLRAEDTAVYYCARTPTKYTLGFAFDIWGQGTMVTVSS
VL: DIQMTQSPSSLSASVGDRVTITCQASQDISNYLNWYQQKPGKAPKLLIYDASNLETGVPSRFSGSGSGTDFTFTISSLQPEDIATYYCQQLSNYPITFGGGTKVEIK
notes: IgG
As to B15, the Kd in test [6] was 2.59 nM; in test [7] it was 0.711 nM.

B16: SA-19-83 (antibody, V domains shown)
VH: QVQLVESGGGVVQPGRSLRLSCAASGFTFDSYLMHWVRQAPGKGLEWVASIIYDGSNKYYADSVKGRFTISRDNSKNTLYLQMNSLRAEDTAVYYCASVRTKYTLGFAFDIWGQGTMVTVSS
VL: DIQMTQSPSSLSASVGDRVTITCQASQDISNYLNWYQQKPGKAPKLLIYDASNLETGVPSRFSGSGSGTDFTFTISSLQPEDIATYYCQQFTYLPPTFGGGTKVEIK
notes: IgG
Turning to B16, the values for the Kd in test [6] and in test [7] were 2.82 nM and 0.505 nM, respectively.

B17: SA-19-74 (antibody, V domains shown)
VH: QVQLVESGGGVVQPGRSLRLSCAASGFAFSSYAMHWVRQAPGKGLEWVAGILYDGSNKYYADSVKGRFTISRDNSKNTLYLQMNSLRAEDTAVYYCARHSQKYTLGFAFDIWGQGTMVTVSS
VL: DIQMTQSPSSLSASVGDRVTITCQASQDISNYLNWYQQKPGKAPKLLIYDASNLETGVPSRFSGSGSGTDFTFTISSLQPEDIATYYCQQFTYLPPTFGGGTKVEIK
notes: IgG
As to B17, the Kd in test [6] worked out at 4.08 nM; in test [7], 0.676 nM.
